In PMC10776578, “Epstein-Barr virus-driven B cell lymphoma mediated by a direct LMP1-TRAF6 complex” (Nature Communications, 2024) one finds percent of parent, Kd and response (relative intensity) data, which are given here for 24 variants.

Usually Kd stands for the equilibrium constant for the complex coming apart.

B1: unnamed (parent)
chain 1: DHQIRELTAKMETQSMYVSELKRTIRTLEDKVAEIEAQQCNGIYIWKIGNFGMHLKCQEEEKPVVIHSPGFYTGKPGYKLCMRLHLQLPTAQRCANYISLFVHTMQGEYDSHLPWPFQGTIRLTILDQSEAPVRQNHEEIMDAKPELLAFQRPTIPRNPKGFGYVTFMHLEALRQRTFIKDDTLLVRCEVSTRFDMGSLRREGFQPRSTDAGV
chain 2: KKVAKKPTNKAPHPKQEPQEINFPDDLPGSNTAAPVQETLHGCQPVTQEDGKESRISVQERQ
B2: unnamed (parent)
chain 1: B1 chain 1
chain 2: GGGPYAQGEDARMLSLVSKTEIEEDSFRQMPTEDEYMDRPSQ
B3: unnamed (parent)
chain 1: B1 chain 1
chain 2: LIWMYYHGQRHSDEHHHDDSLPHPQQATDDSGHESDSNSNEGRHHLLVSGAGDGPPLCSQNLGAPGGGPDNGPQDPDNTDDNGPQDPDNTDDNGPHDPLPQDPDNTDDNGPQDPDNTDDNGPHDPLPHSPSDSAGNDGGPPQLTEEVENKGGDQGPPLMTDGGGGHSHDSGHGGGDPHLPTLLLGSSGSGGDDDDPHGPVQLSYYD
B4: unnamed (parent)
chain 1: MSLLNCENSCGSSQSESDCCVAMASSCSAVTKDDSVGGTASTGNLSSSFMEEIQGYDVEFDPPLESKYECPICLMALREAVQTPCGHRFCKACIIKSIRDAGHKCPVDNEILLENQLFPDNFAKREILSLMVKCPNEGCLHKMELRHLEDHQAHCEFALMDCPQCQRPFQKFHINIHILKDCPRRQVSCDNCAASMAFEDKEIHDQNCPLANVICEYCNTILIREQMPNHYDLDCPTAPIPCTFSTFGCHEKMQRNHLARHLQENTQSHMRMLAQAVHSLSVIPDSGYISEVRNFQETIHQLEGRLVRQDHQIRELTAKMETQSMYVSELKRTIRTLEDKVAEIEAQQCNGIYIWKIGNFGMHLKCQEEEKPVVIHSPGFYTGKPGYKLCMRLHLQLPTAQRCANYISLFVHTMQGEYDSHLPWPFQGTIRLTILDQSEAPVRQNHEEIMDAKPELLAFQRPTIPRNPKGFGYVTFMHLEALRQRTFIKDDTLLVRCEVSTRFDMGSLRREGFQPRSTDAGV
chain 2: MEHDLERGPPGPRRPPRGPPLSSSLGLALLLLLLALLFWLYIVMSDWTGGALLVLYSFALMLIIIILIIFIFRRDLLCPLGALCILLLMITLLLIALWNLHGQALFLGIVLFIFGCLLVLGIWIYLLEMLWRLGATIWQLLAFFLAFFLDLILLIIALYLQQNWWTLLVDLLWLLLFLAILIWMYYHGQRHSDEHHHDDSLPHPQQATDDSGHESDSNSNEGRHHLLVSGAGDGPPLCSQNLGAPGGGPDNGPQDPDNTDDNGPQDPDNTDDNGPHDPLPQDPDNTDDNGPQDPDNTDDNGPHDPLPHSPSDSAGNDGGPPQLTEEVENKGGDQGPPLMTDGGGGHSHDSGHGGGDPHLPTLLLGSSGSGGDDDDPHGPVQLSYYD

The variants in one assay derive from B1. Put plainly: AlphaScreen. The note with it: with partner chain of the complex shown; parent: 100; read off a plot.
As for chain 1 R83A, the percent of parent came out at 85%.
With chain 1 K160A, the percent of parent was 90%.
In the case of chain 1 F162A, the percent of parent is 1%.
As for chain 1 Y164A, the percent of parent stood at 1%.

In the next assay the parent is B2. Put plainly: AlphaScreen. The note with it: with partner chain of the complex shown; parent: 100; read off a plot.
Consider chain 1 F162A, for which the percent of parent came to 1%.
Take chain 1 R83A: the percent of parent was determined as 1%.

The assay is the same for the next values; noted with them: with partner chain of the complex shown.
Consider chain 2 E33Q, for which the Kd was 15.6 nM.

The variants in another assay derive from B3. As to the kind of experiment: AlphaScreen. The following applies: with partner chain of the complex shown; 100 nM His-TRAF6; parent: 100; read off a plot.
Regarding chain 2 Y205A, the percent of parent stood at 47%.
For chain 2 Y204A, the percent of parent worked out at 11%.
As to chain 2 S203A, the percent of parent stood at 94%.
Turning to chain 2 P199A, the percent of parent came to 18%.
As to chain 2 V200A, the percent of parent is 15%.
In the case of chain 2 Q201A, the percent of parent amounted to 7%.
chain 2 P24A Q26A T28A: the percent of parent is 83%.
Same read-out and setting: the value for chain 2 L202A was 100%.
The same measure, in the same setting: the value for chain 2 G198A was 75%.

The same assay, now with this note: with partner chain of the complex shown; 300 nM His-TRAF6; parent: 100; read off a plot.
With chain 2 Y205A, the percent of parent was 65%.
Turning to chain 2 Y204A, the percent of parent was 10%.
chain 2 S203A: the percent of parent was found to be 88%.
In the case of chain 2 P199A, the percent of parent stood at 19%.
With chain 2 V200A, the percent of parent was 15%.
For chain 2 Q201A, the percent of parent was 6%.
With chain 2 P24A Q26A T28A, the percent of parent came to 98%.
For the variant chain 2 L202A, the percent of parent came out at 98%.
Regarding chain 2 G198A, the percent of parent is 84%.

Still in this assay, the particulars now being: with partner chain of the complex shown; 1000 nM His-TRAF6; parent: 100; read off a plot.
As to chain 2 Y205A, the percent of parent turned out to be 84%.
Still for that read-out and setting: with chain 2 Y204A the figure was 9%; with chain 2 S203A, 90%.
For chain 2 P199A, the percent of parent was 21%.
As for chain 2 V200A, the percent of parent is 14%.
For the variant chain 2 Q201A, the percent of parent was determined as 4%.
As for chain 2 P24A Q26A T28A, the percent of parent amounted to 92%.
Still for that read-out and setting: the value for chain 2 L202A was 98%; that for chain 2 G198A was 96%.

Staying with this assay, now noted: with partner chain of the complex shown.
For the variant chain 2 Y204F, the Kd came to 21.7 nM.

The same assay, now with this note: with partner chain of the complex shown; parent: 100; read off a plot.
Turning to chain 1 R83A, the percent of parent was determined as 4%.
Turning to chain 1 K160A, the percent of parent came to 100%.
chain 1 F162A: the percent of parent was determined as 5%.

In a further assay the parent is B4. Put plainly: co-immunoprecipitation, quantified immunoblot. The note with it: with partner chain of the complex shown; HEK293 cells; parent: 1.3e+07; read off a plot. (In general: A western blot detects proteins with antibodies after separation by electrophoresis.)
Turning to chain 1 R392A, the response (relative intensity) came to 2.5e+06.
Same read-out and setting: the value for chain 1 Y473A was 5.5e+06; that for chain 1 F471A was 6e+06.
For the variant chain 1 K469A, the response (relative intensity) was 1.8e+07.
